The record followed here is patent publication US20250002610A1 (Genmab, published 2025).

One test has as its target T1, human DR4HsECD-FcHisCtag (human).
T1 construct: also called recombinant human DR4
As to the kind of experiment: BLI (Octet), antigen captured on anti-Penta-HIS sensors, average of three experiments. The procedure:
Experiments were carried out while shaking at 1,000 RPM at 30° C. Amine Reactive 2nd Generation (AR2G) biosensors (Sartorius, Cat #18-5092) were activated by reaction with 20 mM EDC (N-(3-Dimethylaminopropyl)-N′-ethylcarbodiimide hydrochloride) (Sigma-Aldrich, Cat #03449) and 10 mM s-NHS (N-hydroxysulfosuccinimide sodium salt) (Sigma-Aldrich, Cat #56485) for 300 s. The activated AR2G sensors were loaded with 2.5 μg/mL His-tagged recombinant Human FAPα (Acro Biosystems, Cat #FAP-H5244-100ug) in 10 mM Sodium Acetate pH 5.0 (Sartorius, Cat #18-1069) or 2.5 μg/mL His-tagged recombinant Cynomolgus FAPα (Acro Biosystems, Cat #FAP-C52H3-100ug) in 10 mM Sodium Acetate pH 5.0 for 600 s and quenched with 1 M ethanolamine pH 8.5 (Sartorius Cat #18-1071) for 300 s. After a baseline measurement in Sample Diluent (1000 s; Sartorius, Cat #18-1104), the association (100 s) and dissociation (4,000 s) of functionally monovalent antibody was determined using a concentration range of 0.78-800 nM with two-fold dilution steps in Sample Diluent. The molecular mass of the antibodies used for the calculations was calculated from the sequences.
The binding affinity of BisG1-FAPα-FERL/DR4-FERR, BisG1-b12-FERL/DR4-FERR and control BisG1-FAPα-FERL/b12-FERR to recombinant human and cynomolgus monkey DR4 protein was determined using label-free biolayer interferometry on an Octet HTX instrument (Sartorius).
The protocol detailed in Example 5 was used with the following differences: anti-Penta-HIS biosensors (Sartorius, Cat #18-5120) were used; the sensors were preconditioned by exposure to 10 mM glycine (Sigma-Aldrich, Cat #15527) buffer pH 1.5 for 5 s, followed by neutralization in Sample Diluent (Sartorius, Cat #18-1104) for 5 s; both steps were repeated 2 times; the sensors were loaded with 50 nM human DR4HsECD-FcHisCtag (SEQ ID NO: 66), or cynomolgus DR4MfECD-FcHisCtag (SEQ ID NO: 67), for 600 s; the dissociation time was 1,000 s; The window of interest for the dissociation time was set at 100 s for the cynomolgus antigen and at 1,000 s for the human antigen.
In general terms: In BLI a coated tip is dipped into the sample, and binding shifts an interference pattern.

The target of test [1] is T2, human FAPα (Fibroblast activation protein alpha), cell surface expressed (human, UniProt Q12884 1-760).
T2 construct: Endogenous on human lung fibroblasts and CAFs
T2 sequence: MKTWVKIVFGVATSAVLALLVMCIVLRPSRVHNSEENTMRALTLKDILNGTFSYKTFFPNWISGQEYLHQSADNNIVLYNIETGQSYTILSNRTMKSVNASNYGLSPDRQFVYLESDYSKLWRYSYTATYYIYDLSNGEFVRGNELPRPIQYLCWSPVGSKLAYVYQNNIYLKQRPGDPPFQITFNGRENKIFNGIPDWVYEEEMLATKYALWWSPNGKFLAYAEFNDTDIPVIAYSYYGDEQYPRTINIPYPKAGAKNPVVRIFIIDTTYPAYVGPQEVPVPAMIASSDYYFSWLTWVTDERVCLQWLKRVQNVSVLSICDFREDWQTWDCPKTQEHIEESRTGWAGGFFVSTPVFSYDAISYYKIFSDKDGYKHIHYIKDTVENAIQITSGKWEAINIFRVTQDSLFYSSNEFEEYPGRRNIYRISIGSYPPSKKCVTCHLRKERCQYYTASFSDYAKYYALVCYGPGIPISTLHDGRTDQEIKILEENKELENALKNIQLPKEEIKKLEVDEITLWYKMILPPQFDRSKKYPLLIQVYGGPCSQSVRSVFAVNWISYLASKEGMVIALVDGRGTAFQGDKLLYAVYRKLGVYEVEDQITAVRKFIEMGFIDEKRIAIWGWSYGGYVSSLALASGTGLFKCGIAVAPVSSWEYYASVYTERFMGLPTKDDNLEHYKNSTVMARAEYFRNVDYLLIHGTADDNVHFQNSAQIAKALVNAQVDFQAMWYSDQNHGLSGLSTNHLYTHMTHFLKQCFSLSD
The test is described as follows: flow cytometry, CAFs, n = 1. On the procedure:
Binding of bispecific or monoclonal antibodies carrying the anti-FAPα arm derived from IgG1-FAPα-FERL (BisG1-FAPα-FERL/DR4-FERR, BisG1-FAPα-FERL/b12-FERR, and IgG1-FAPα-FERL) to cell surface expressed human FAPα was analyzed by flow cytometry using human lung fibroblasts and CAFs, which endogenously express FAPα. BisG1-b12-FERL/b12-FERR was used as negative control.
Human lung fibroblasts and CAFs (50,000 cells/well) were seeded in 96-Well round bottom plates (Greiner Bio-one, Cat #650101). Antibody dilutions were prepared using fluorescence-activated cell sorting (FACS) buffer, consisting of phosphate buffer saline (PBS, Lonza, Cat #BE17-517Q)+1% Bovine Serum Albumin (BSA, Roche, Cat #10735086001)+0.02% Sodium Azide (Bio-World, Cat #41920044-3). Plates were centrifuged, supernatant was removed, cells were resuspended in 50 μL of human Fc Block (BD, Cat #564220, diluted 1:100 in FACS buffer) and 50 μL of viability stain TO-PRO-3 Iodide (Thermo Fisher, Cat #T3605, diluted 1: 25,000 in FACS buffer), and incubated for 15 min at 4° C. Plates were washed three times with FACS buffer. […] Antibody binding to viable cells (TO-PRO-3 negative) was analyzed by flow cytometry on a FACSCelesta™ (BD biosciences) and data were processed using FlowJo_v10.8.1 (FlowJo LLC). Geomean fluorescence intensity, gMFI, was determined and visualized using GraphPad Prism.
In general terms: In flow cytometry, cells or beads pass a laser one at a time.

By Kd is commonly meant a measure of binding affinity in units of concentration. Higher therefore signals lower affinity. For orientation: koff means a measure of how fast the partners let go of each other. Read a low koff as slow dissociation. Broadly, the kon is the rate constant with which the complex forms. High values mean faster complex formation, low ones slower complex formation. As a reminder, the EC50 is the midpoint of the concentration-response curve. The low end stands for higher potency in that assay, the high end for lower potency in that assay.

T1 sequence (chain, as listed by the source limits assumed): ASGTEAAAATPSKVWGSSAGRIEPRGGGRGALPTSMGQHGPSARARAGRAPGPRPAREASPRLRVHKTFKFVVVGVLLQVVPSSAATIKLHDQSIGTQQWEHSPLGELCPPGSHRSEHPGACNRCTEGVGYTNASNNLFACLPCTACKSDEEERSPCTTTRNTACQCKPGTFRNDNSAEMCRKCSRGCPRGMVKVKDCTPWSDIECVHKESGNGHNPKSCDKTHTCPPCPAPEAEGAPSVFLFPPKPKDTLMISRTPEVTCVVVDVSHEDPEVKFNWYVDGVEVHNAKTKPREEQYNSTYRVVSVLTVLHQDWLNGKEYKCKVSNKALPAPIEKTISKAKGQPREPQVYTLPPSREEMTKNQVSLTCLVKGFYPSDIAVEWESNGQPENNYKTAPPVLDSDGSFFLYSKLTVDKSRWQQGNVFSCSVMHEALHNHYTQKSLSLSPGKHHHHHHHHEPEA

B1: BisG1-FAPα-FERL/DR4-FERR (bispecific antibody, human IgG1, kappa, lambda)
heavy 1: EVQLLESGGGLVQPGGSPRLSCEASGFTFSSYALSWVRQAPGKGLEWVSAISGSGGGRYYADSVKGRFTISRDNSKNTLFLQMNSLRAEDTAVYYCAKEGYSSSGTYWDHWGQGTLVTVSSASTKGPSVFPLAPSSKSTSGGTAALGCLVKDYFPEPVTVSWNSGALTSGVHTFPAVLQSSGLYSLSSVVTVPSSSLGTQTYICNVNHKPSNTKVDKRVEPKSCDKTHTCPPCPAPEFERGPSVFLFPPKPKDTLMISRTPEVTCVVVDVSHEDPEVKFNWYVDGVEVHNAKTKPREEQYNSTYRVVSVLTVLHQDWLNGKEYKCKVSNKALPAPIEKTISKAKGQPREPQVYTLPPSREEMTKNQVSLTCLVKGFYPSDIAVEWESNGQPENNYKTTPPVLDSDGSFLLYSKLTVDKSRWQQGNVFSCSVMHEALHNHYTQKSLSLSPG
light 1: AIQMTQSPSSVSASVGDRVTITCRASQGVSSWLAWYQQKPGRAPKLLIYVASTLQSGVPSRFSGSGSGTDFTLTINSLQPEDFATYYCQQANSFPPTFGQGTRLEMKRTVAAPSVFIFPPSDEQLKSGTASVVCLLNNFYPREAKVQWKVDNALQSGNSQESVTEQDSKDSTYSLSSTLTLSKADYEKHKVYACEVTHQGLSSPVTKSFNRGEC
heavy 2: QVQLQESGPGLVKPSGTLSLTCAVSGGSISSYSWWSWIRQPPGKGLEWIGELYHSGSTNYNPSLKSRVTISVDKSKNQFSLKLRSVTAADTAVYYCVRGVATIDYWGQGTLVTVSSASTKGPSVFPLAPSSKSTSGGTAALGCLVKDYFPEPVTVSWNSGALTSGVHTFPAVLQSSGLYSLSSVVTVPSSSLGTQTYICNVNHKPSNTKVDKRVEPKSCDKTHTCPPCPAPEFERGPSVFLFPPKPKDTLMISRTPEVTCVVVDVSHEDPEVKFNWYVDGVEVHNAKTKPREEQYNSTYRVVSVLTVLHQDWLNGKEYKCKVSNKALPAPIEKTISKAKGQPREPQVYTLPPSREEMTKNQVSLTCLVKGFYPSDIAVEWESNGQPENNYKTTPPVLDSDGSFFLYSRLTVDKSRWQQGNVFSCSVMHEALHNHYTQKSLSLSPG
light 2: QSALTQPPSASGSPGQSVTISCTGTSSDVGGYNFVSWYQQDPGKAPKLLIYEVTKRPSGVPDRFSGSKSGNTASLTVSGLQAEDEADYYCSSYAGSNNVMFGGGTKLTVLGQPKAAPSVTLFPPSSEELQANKATLVCLISDFYPGAVTVAWKADSSPVKAGVETTTPSKQSNNKYAASSYLSLTPEQWKSHRSYSCQVTHEGSTVEKTVAPTECS
notes: Human IgG1 bispecific made by controlled Fab-arm exchange of IgG1-FAPα-FERL and IgG1-DR4-FERR; monovalent for FAPα and for DR4; also called GEN1057
In the test with human DR4HsECD-FcHisCtag, B1 gave a Kd of 0.39 nM, a koff of 0.00012 s⁻¹ and a kon of 320000 M⁻¹ s⁻¹. This molecule also yielded an EC50 in test [1] of 0.159 µg/mL.
